This note sets out measurements from patent publication US20240336672A1.

Holding throughout (conditions): remark: other sources report otherwise
For assay [1], the target named is SARS-CoV-2 RBD (P.1) domain (SARS-CoV-2). As to the kind of experiment: ELISA. More on the design: unit not given beside the values.
Assay [2] addresses SARS-CoV-2 RBD (B.1.1.7) domain (SARS-CoV-2). As to the kind of experiment: ELISA. More on the design: unit not given beside the values. Background: An ELISA detects its analyte on a solid surface through an enzyme-linked reagent.
For assay [3], the target named is SARS-CoV-2 RBD (B.1.351) domain (SARS-CoV-2). As to the kind of experiment: ELISA. More on the design: unit not given beside the values.
For assay [4], the target named is T1, SARS-CoV-2 Spike ectodomain (tri-S), Wuhan (SARS-CoV-2), P0DTC2. As to the kind of experiment: competition ELISA, biotinylated tri-S to immobilized ACE2 ectodomain.
Assay [5] concerns the target T1, SARS-CoV-2 Spike ectodomain (tri-S), …. As to the kind of experiment: ELISA. On the set-up: unit not given beside the values.
Assay [6] deals with SARS-CoV-2 RBD (P.1) domain (SARS-CoV-2). As to the kind of experiment: ELISA. On the set-up: unit not given beside the values. The source holds these as a separate data set.
Assay [7] deals with SARS-CoV-2 RBD (B.1.1.7) domain (SARS-CoV-2). As to the kind of experiment: ELISA. On the set-up: unit not given beside the values. This is another data set of the same source.
Assay [8] concerns the target SARS-CoV-2 RBD (B.1.351) domain (SARS-CoV-2). As to the kind of experiment: ELISA. More on the design: unit not given beside the values. This is another data set of the same source.

For orientation: IC50 means the point on the concentration scale where inhibition reaches its midpoint. Usually IC90 stands for the concentration needed for an effect of 90%.

B1: Cv2.3194 (recombinant human IgG1) (antibody)
heavy: EVQLVESGGGLIQPGGSLRLSCAASGITVTSNYMSWVRQAPGKGLEWVSVIYPGGSTFYADSVKGRFTISRDNSKNTLYLQMNSLRAEDTAVYYCARDLVVYGMDVWGQGTTVTVSSASTKGPSVFPLAPSSKSTSGGTAALGCLVKDYFPEPVTVSWNSGALTSGVHTFPAVLQSSGLYSLSSVVTVPSSSLGTQTYICNVNHKPSNTKVDKKVEPKSCDKTHTCPPCPAPELLGGPSVFLFPPKPKDTLMISRTPEVTCVVVDVSHEDPEVKFNWYVDGVEVHNAKTKPREEQYNSTYRVVSVLTVLHQDWLNGKEYKCKVSNKALPAPIEKTISKAKQPREPQVYTLPPSRDELTKNQVSLTCLVKGFYPSDIAVEWESNGQPENNYKTTPPVLDSDGSFFLYSKLTVDKSRWQQGNVFSCSVMHEALHNHYTQKSLSLSPGK
light: EIVLTQSPGTLSLSPGERATLSCRASQSVSSSYLAWYQQKPGQAPRLLIYGASSRATGIPGRFSGSGSGTDFTLTISRLEPEDFAIYYCQQGVTFGGGTKVEIKRTVAAPSVFIFPPSDEQLKSGTASVVCLLNNFYPREAKVQWKVDNALQSGNSQESVTEQDSKDSTYSLSSTLTLSKADYEKHKVYACEVTHQGLSSPVTKSFNRGEC
Turning to B1, the AUC (RBD bind.) was determined as 13 in assay [1], 13 in assay [2] and 12 in assay [3]. The AUC in assay [3] came out at 12; in assay [5], 3; in assay [6], 3; in assay [7] it was 3; in assay [8], 4. The same molecule returned an IC50 in assay [4] of 0.093 µg/mL. Also, in assay [4], the IC90 amounted to 0.212 µg/mL.
